Non-standard residues stand in square brackets, D forms with d. Groups on a side chain read outwards from the residue. No end group written: not given here. Phe(4-N3) = [N-]=[N+]=Nc1ccc(C[C@H](N)C(=O)O)cc1; ssDNA = not defined here
Target: integrin (of mouse fibroblasts, members not named for this experiment)
Details: scale: fold relative to the unmodified substrate

[Phe(4-N3)]([DIBAC-ssDNA])GGRGDS-NH2 (reading uncertain; also: printed as F^az^GGRGDS) [RGDS P-DNA (F^azGGRGDS peptide conjugated to ssDNA)]
area of fibroblasts on RGDS surfaces after 24 h, relative to the unmodified substrate: 6

— paper PMC5508132
